Source: article PMC9418145, “Structure of the human NK cell NKR-P1:LLT1 receptor:ligand complex reveals clustering in the immune synapse” (Nature Communications, 2022)

How the values were obtained:
[1] = molecular target: soluble human NKR-P1 ectodomain (C-type lectin-like domain, Gly90-Ser225), glycosylated with uniform GlcNAc2Man5 N-glycans (human) (UniProt Q12918); test: AUC; sedimentation velocity of equimolar mixtures of glycosylated NKR-P1 with LLT1 or LLT1^SIM at increasing concentrations, 20 °C, SEC buffer; isotherms of weight-average S fitted to A + B ⇔ AB or A + B ⇔ AB + B ⇔ BAB (A the LLT1 dimer, B the NKR-P1 monomer)
[2] = crystal structure comparison of homodimers; conditions: glycan lost; control: glycosylated NKR-P1 (GlcNAc2Man5), 5MGR
[3] = analytical ultracentrifugation, sedimentation velocity; conditions: glycan lost; control: wild-type NKR-P1 ectodomain
CD spectroscopy = conditions: glycan lost; control: wild-type NKR-P1 ectodomain
AICL (Homo sapiens) = AICL (Homo sapiens) (UniProt Q92478); conditions: cited from earlier work
[4] = molecular target: T1, soluble human NKR-P1 ectodomain (C-type lectin-like domain, Gly90-Ser225), glycosylated with uniform … (human, UniProt Q12918 90-225, Asn-GlcNAc2Man5 N-glycans; potential N-glycosylation sites Asn116, Asn157, Asn169); test: not stated; overall Kd of this study as told in the discussion; the experiment behind it (AUC or MST) is not named there; conditions: both partners purified
T1 construct: residues at the N-terminus of the secreted protein, left from the N-terminal secretion leader of pOPINGGTneo; human NKR-P1 (CD161), extracellular CTL domain, Gly90-Ser225; For MST this protein was labelled with Atto 488 NHS-ester at pH 6.5; Monomeric in solution (AUC), a non-covalent helix α1-centered homodimer in the crystal; Ile168 stands in the structure; also called CD161; NKR-P1_glyco; …
T1 sequence: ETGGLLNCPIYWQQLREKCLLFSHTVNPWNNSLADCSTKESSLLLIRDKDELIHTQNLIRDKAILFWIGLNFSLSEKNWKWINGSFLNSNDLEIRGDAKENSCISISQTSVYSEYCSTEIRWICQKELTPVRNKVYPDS

[5] = molecular target: T1, soluble human NKR-P1 ectodomain (C-type …); test: AUC; sedimentation velocity of equimolar mixtures of glycosylated NKR-P1 with LLT1 or LLT1^SIM at increasing concentrations, 20 °C, SEC buffer; isotherms of weight-average S fitted to A + B ⇔ AB or A + B ⇔ AB + B ⇔ BAB (A the LLT1 dimer, B the NKR-P1 monomer); conditions: both partners purified
[6] = molecular target: the molecule itself; test: AUC; sedimentation velocity of the single glycosylated proteins, 48,000 rpm, 20 °C, 10 mM HEPES pH 7.5, 150 mM NaCl, 10 mM NaN3

AICL (Homo sapiens), sequence (Q92478 whole entry, the tested form may be a part): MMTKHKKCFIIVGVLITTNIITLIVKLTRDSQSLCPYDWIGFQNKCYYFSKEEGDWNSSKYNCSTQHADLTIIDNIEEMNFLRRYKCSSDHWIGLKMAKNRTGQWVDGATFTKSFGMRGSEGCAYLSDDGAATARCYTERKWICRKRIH

Molecule: LLT1^SIM, N120R, R153E, K169A secondary interaction mode triple mutant of the soluble LLT1 ectodomain (from UniProt Q9UHP7 72-191) (domain or fragment)
- fold weaker overall affinity than the wild-type LLT1 [1]: 3 fold

Molecule: NKR-P1 (CD161): Endo F1
- structure_or_conformation, other: pairwise Cα RMSD [2]: no change

Molecule: NKR-P1 (CD161): S159A
- oligomerisation [3]: increases
- stability_or_folding (CD spectroscopy): no change

Molecule: NKp80 (from UniProt Q9NZS2)
- Kd (AICL (Homo sapiens)): 2.3 µM

B1: stabilized H176C form of the soluble human LLT1 ectodomain (Gln72-Val191), glycosylated (domain or fragment, UniProt Q9UHP7 72-191, looked up)
chain: QAACPESWIGFQRKCFYFSDDTKNWTSSQRFCDSQDADLAQVESFQELNFLLRYKGPSDHWIGLSREQGQPWKWINGTEWTRQFPILGAGECAYLNDKGASSARCYTERKWICSKSDIHV
modifications: GlcNAc2Man5 glycans
notes: human LLT1, soluble ectodomain Gln72-Val191 with the stabilising mutation H176C; also called wild-type LLT1; soluble LLT1; source: HEK293S GnTI- cells, transiently transfected, secreted, purified (IMAC on Talon, SEC)
- Kd [4]: 90 µM
- KD of the primary interaction mode [5]: 50 µM
- stoichiometry N [6]: 2
